Assay results reported in publication PMC11609826 (Cancer Discovery, 2024).

Tests used:
Experiment in all cases: ELISA
[1] = target: inducible T-cell costimulator (ICOS), recombinant (Homo sapiens (assumed), UniProt Q9Y6W8)
[2] = target: B- and T-lymphocyte attenuator (BTLA), recombinant (Homo sapiens (assumed), UniProt Q7Z6A9)
CD28, recombinant = CD28, recombinant (Homo sapiens (assumed), UniProt P10747)
PD-1, recombinant = PD-1, recombinant (Homo sapiens (assumed), UniProt Q15116)

Measured: binding result

Sequence of inducible T-cell costimulator (ICOS), recombinant (Q9Y6W8 21-199): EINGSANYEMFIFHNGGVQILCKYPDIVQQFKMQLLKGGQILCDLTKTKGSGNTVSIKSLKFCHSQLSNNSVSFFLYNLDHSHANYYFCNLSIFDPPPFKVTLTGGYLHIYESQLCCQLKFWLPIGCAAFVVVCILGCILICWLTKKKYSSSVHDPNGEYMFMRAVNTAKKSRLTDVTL
Sequence of PD-1, recombinant (Q15116 25-288): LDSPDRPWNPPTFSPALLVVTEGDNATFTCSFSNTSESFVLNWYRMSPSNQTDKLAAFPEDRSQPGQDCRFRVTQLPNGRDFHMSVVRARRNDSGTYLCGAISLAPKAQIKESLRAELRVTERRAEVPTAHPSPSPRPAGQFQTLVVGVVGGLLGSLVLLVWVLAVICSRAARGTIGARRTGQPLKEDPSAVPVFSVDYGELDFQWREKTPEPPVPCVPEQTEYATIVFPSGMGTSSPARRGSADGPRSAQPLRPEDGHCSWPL

B1: Botensilimab (antibody, V domains shown)
VH: EVQLVESGGGLVKPGGSLRLSCAASGFTFSSYSMNWVRQAPGKGLEWVSSISSSSSYIYYAESVKGRFTISRDNAKNSLYLQMNSLRAEDTAVYYCARVGLFGPFDIWGQGTLVTVSS
VL: EIVLTQSPGTLSLSPGERATLSCRASQSVSRYLGWYQQKPGQAPRLLIYGASTRATGIPDRFSGSGSGTDFTLTITRLEPEDFAVYYCQQYGSSPWTFGQGTKVEIK
no binding (tested: 1,000 ng/mL): all assays above
